Laboratory results: patent US20240287172A1 (SCIRHOM, published 2024)
Positions count from the first letter of the chain named.

T1: hiR2-FL-T544P-T7 (human, UniProt Q6PJF5 1-856)
T1 sequence: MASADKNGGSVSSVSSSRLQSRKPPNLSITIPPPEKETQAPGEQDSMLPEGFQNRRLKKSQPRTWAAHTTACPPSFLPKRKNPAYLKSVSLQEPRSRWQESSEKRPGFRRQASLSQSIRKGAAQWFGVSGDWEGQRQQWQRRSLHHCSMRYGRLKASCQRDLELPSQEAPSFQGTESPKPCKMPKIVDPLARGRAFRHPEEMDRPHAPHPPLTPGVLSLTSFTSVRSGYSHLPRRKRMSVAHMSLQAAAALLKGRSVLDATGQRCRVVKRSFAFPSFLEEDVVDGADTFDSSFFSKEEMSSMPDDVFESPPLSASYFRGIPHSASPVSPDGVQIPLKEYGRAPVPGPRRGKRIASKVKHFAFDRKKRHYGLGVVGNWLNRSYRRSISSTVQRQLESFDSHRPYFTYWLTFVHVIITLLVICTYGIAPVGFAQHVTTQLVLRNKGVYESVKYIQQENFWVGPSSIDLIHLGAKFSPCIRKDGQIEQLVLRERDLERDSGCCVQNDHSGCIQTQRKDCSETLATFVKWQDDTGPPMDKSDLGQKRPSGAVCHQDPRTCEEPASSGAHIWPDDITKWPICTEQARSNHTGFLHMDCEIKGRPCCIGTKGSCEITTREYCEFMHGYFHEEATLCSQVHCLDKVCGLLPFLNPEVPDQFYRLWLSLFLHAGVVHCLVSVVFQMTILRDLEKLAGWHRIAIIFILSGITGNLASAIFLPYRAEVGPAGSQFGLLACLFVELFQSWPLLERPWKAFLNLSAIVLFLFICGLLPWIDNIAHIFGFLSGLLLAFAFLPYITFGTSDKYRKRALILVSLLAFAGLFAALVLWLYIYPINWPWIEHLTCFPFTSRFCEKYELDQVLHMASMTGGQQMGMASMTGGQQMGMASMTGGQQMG

T2: hiR2-FL-S537E-T7 (human, UniProt Q6PJF5 1-856)
T2 sequence: T1 sequence with S537E, P544T

B1: antibody 3 (antibody, V domains shown)
VH: QVTLKESGPGILQPSQTLSLTCSFSGFSLTTFAMGIGWVRQPSGKGLEWLAHIWWDGEKYNNPVLKSRLTISKDTSKNQVFLRIANVDTPDTATYYCARISSIYYIIDNWGQGTSVTVSS
VL: DIVLTQSPATLSVTPGHSVSLSCRASQSISNNLHWYQKKSHESPRLLIKYVSQSISGIPSRFSGSGSGTDFTLSINSVETEDFGMYFCQQSYNWPLTFGAGTKLELK
notes: mouse IgG, kappa light chain; also called clone #3; purified antibody 3
B2: antibody 48 (antibody, V domains shown)
VH: QVQLQQSGTELVRPGTSVKVSCKASGYAFTNYLIEWVKQRPGQGLEWIGVINPGSGFTKYNEKFKGKATLTADKSSSTVYMHLSSLTSEDSAVYFCARGLYRAMDYWGQGTSVTVSS
VL: DIQMTQSPASQSASLGESVTITCLASQTIATWLAWYQQKPGKSPQLLIYGATTLADGVPSRFSGGGSGTKFSFKISSLQAEDFVSYYCQQLYSTPYTFGGGTKLEIK
notes: mouse IgG, kappa light chain; also called clone #48; purified antibody 48
B3: antibody 50 (antibody, V domains shown)
VH: B2 VH with T9A, T16A, T30S, V79A, H82Q
VL: B2 VL with A30G, G50A, T52A, T53S, S85N, L91I
notes: mouse IgG, kappa light chain; also called clone #50; purified antibody 50
B4: antibody 34 (antibody, V domains shown)
VH: QVTLKESGPGILQPSQTLSLTCSFSGFSLSTFSLGVGWIRQSSGKGLEWLAHIWWDDEKYYNPALKSRLTISKDTSKNQVFLKIANVDAADTATYYCARAYYSKSYYALDYWGQGTSVTVSS
VL: DIQMTQSPSSLSASLGERVSLTCRASQEISGYLSWLQQKPDGTIKRLIYAASTLDSGVPKRFSGSRSGSDYSLAISSLESEDFADYYCLQYANFPFTFGSGTKLEIK
notes: mouse IgG, kappa light chain; also called clone #34; purified antibody 34
B5: antibody 5 (antibody, V domains shown)
VH: QVTLKESGPGILQPSQTLSLTCSFSGFSLSTFGMGVGWIRQPSGKGLEWLAHIWWDDEKYYNSALKSRLTISKATSKNQAFLKIANVDTADTATYYCARISNYGSNYWYFNVWGTGTTVTVSS
VL: QVVLTQSPALMSASPGEKVTMTCSAGSSVSCMYWYQQKPGSSPRVLIYDTSNLASGVPARFTGSGSGTSYSLTISRMEAEDAASYYCQQWNSYPLTFGAGTKLELK
notes: mouse IgG, kappa light chain; also called clone #5; purified antibody 5
B6: antibody 42 (antibody, V domains shown)
VH: B5 VH with F24L, M34R, S63P, A74D, A80V, K83R, S101Q, N111D
VL: LIVLTQSPAIMSASPGEKVTMTCGATSRISYMFWYQQKPGSSPRVLIYDTSNLASGVPVRFSGSGSGTSYSLTISRVEAEDVATYYCQQWNSYPLTFGAGTKLELK
notes: mouse IgG, kappa light chain; also called clone #42; purified antibody 42
B7: antibody 44 (antibody, V domains shown)
VH: B5 VH with G44E, E58D, S63P, A74D, A80I, A85T, D91E, A98S, S101G, N111D
VL: QIVLTQSPAVMSASPGEKVTMTCTASSSVYYMYWYQQTPGSSPRLLIYDTSNLASGVPVRFSGSGSGTSYSLTISRMEAEDAATYYCQQWNTYPLTFGAGTKLELK
notes: mouse IgG, kappa light chain; also called clone #44; purified antibody 44
B8: antibody 43 (antibody, V domains shown)
VH: B5 VH with T3A, P42S, H52N, E58D, S63P, A74D, T75A, S101G, N111D
VL: B6 VL with L1Q, K18R, G24S, T26N, F33Y, V45L, V77M, V82A, Y86N, N91S
notes: mouse IgG, kappa light chain; also called clone #43; purified antibody 43
B9: antibody 22 (antibody, V domains shown)
VH: B5 VH with A80V
VL: B5 VL with C31Y, S84T
notes: mouse IgG, kappa light chain; also called clone #22; purified antibody 22

Columns and labels:
hiR2-FL-T544P-T7 = molecular target: T1, hiR2-FL-T544P-T7; experiment: FACS, MEF-DKO cells, 3 µg/ml
Source text: In brief, immortalized MEF-DKO-hiR2-FL-WT-T7 cells, MEF-DKO-miR2-FL-WT-T7 cells and MEF-DKO-hiR2-FL-R441K-T7, MEF-DKO-hiR2-FL-K443R-T7, MEF-DKO-hiR2-FL-V459I-T7, MEF-DKO-hiR2-FL-G481Q-T7, MEF-DKO-hiR2-FL-L488R-T7, MEF-DKO-hiR2-FL-L493I-T7, MEF-DKO-hiR2-FL-D496T-T7, MEF-DKO-hiR2-FL-H505R-T7, MEF-DKO-hiR2-FL-Q512L-T7, MEF-DKO-hiR2-FL- R513K-T7, MEF-DKO-hiR2-FL-D528N-T7, MEF-DKO-hiR2-FL-P533-T7, MEF-DKO-hiR2-FL-M534S-T7, MEF-DKO-hiR2-FL-G540S-T7, MEF-DKO-hiR2-FL-R543Q-T7, MEF-DKO-hiR2-FL-T544P-T7, MEF-DKO-hiR2-FL-G546A-T7, MEF-DKO-hiR2-FL-A547V-T7, MEF-DKO-hiR2-FL-R582Q-T7, MEF-DKO-hiR2-FL-F588L-T7, MEF-DKO-hiR2-FL-M591I-T7, MEF-DKO-hiR2-FL-E594K-T7, MEF-DKO-hiR2-FL-E626D-T7, MEF-DKO-hiR2-FL-L657I-T7, and MEF-DKO-hiR2-FL-H835Y-T7 cells were harvested with 10 mM EDTA in PBS, washed and resuspended in FACS buffer (PBS, 3% FBS, 0.05% sodium azide), and seeded in Nunc U-bottom 96-well plates (Thermo Fisher Scientific, USA) at approximately 3×10⁵ cells per well.
To pellet cells and remove supernatants, the plates were centrifuged at 1,500 rpm and 4° C. for 3 minutes. For primary staining, cells were resuspended in 100 μl per well of either FACS buffer alone (controls) or the purified antibodies 3, 5, 16, 22, 34, 42, 43, 44, 48, and 50 of the invention at 3 μg/ml FACS buffer and incubated on ice for 1 hour. Afterwards, plates were centrifuged at 1,500 rpm and 4° C. for 3 minutes and washed twice with 200 μl per well of FACS buffer. For secondary staining, cells were spun down and resuspended in 100 μl per well of PE-conjugated goat anti-mouse IgG F(ab′)2 detection fragment (Dianova, Germany) diluted 1:100 in FACS buffer. Protected from light, the cell suspensions were incubated on ice for 1 hour. Plates were then centrifuged at 1,500 rpm and 4° C. for 3 minutes and washed three times with 200 μl per well of FACS buffer. Finally, cells were resuspended in 150 μl per well of FACS buffer and analyzed using a BD Accuri™ C6 Plus flow cytometer (Becton Dickinson, Germany).

hiR2-FL-S537E-T7 = molecular target: T2, hiR2-FL-S537E-T7; experiment: FACS, MEF-DKO cells, 3 µg/ml

| Binder | loss of binding vs wild type (hiR2-FL-T544P-T7) [%] | loss of binding vs wild type (hiR2-FL-S537E-T7) [%] |
| --- | --- | --- |
| B1 | ≥ 60 | – |
| B2 | ≥ 30 | – |
| B3 | ≥ 30 | – |
| B4 | ≥ 60 | ≥ 95 |
| B5 | ≥ 60 | ≥ 95 |
| B6 | ≥ 60 | ≥ 60 |
| B7 | ≥ 30 | ≥ 60 |
| B8 | ≥ 60 | ≥ 60 |
| B9 | ≥ 30 | ≥ 60 |
